{"source": "the supplement of paper PMC9233669", "key": {"[1]": {"test_system": "biotinyl-Val-oxazolone", "assay": "self-aminoacylation, catalytic enhancement (BVO) (fold over background); higher = more active; k-Seq, kA / k0A0; sequences stand for … in GGGAAUGGAUCCACAUCUACGAAUUC…UUCACUGCAGACUUGACGAAGCUG", "summary_of_the_method": "(§1)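 Mutagenized RNA pools with a 21-nt variable region (0.43 μM) were reacted with each biotinyl-aminoacyl-oxazolone at 2–1250 μM for 90 minutes at room temperature, in 50 μL HEPES/NaCl/KCl/MgCl2/CaCl2 buffer containing 5% acetonitrile at pH 6.9–7.0. RNA captured on streptavidin was quantified by triplicate qPCR and by Illumina sequencing. The fraction reacted for each sequence was fit to a pseudo-first-order model with bootstrapping, and catalytic enhancement is the median kA divided by the uncatalyzed rate, taken as the low-activity peak of a bimodal Gaussian fit.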"}, "[2]": {"test_system": "biotinyl-Phe-oxazolone", "assay": "self-aminoacylation, catalytic enhancement (BFO) (fold over background); higher = more active; k-Seq, kA / k0A0; sequences stand for … in GGGAAUGGAUCCACAUCUACGAAUUC…UUCACUGCAGACUUGACGAAGCUG", "summary_of_the_method": "as §1"}, "[3]": {"test_system": "biotinyl-Met-oxazolone", "assay": "self-aminoacylation, catalytic enhancement (BMO) (fold over background); higher = more active; k-Seq, kA / k0A0; sequences stand for … in GGGAAUGGAUCCACAUCUACGAAUUC…UUCACUGCAGACUUGACGAAGCUG", "summary_of_the_method": "as §1"}, "[4]": {"test_system": "biotinyl-Ile-oxazolone", "assay": "self-aminoacylation, catalytic enhancement (BIO) (fold over background); higher = more active; k-Seq, kA / k0A0; sequences stand for … in GGGAAUGGAUCCACAUCUACGAAUUC…UUCACUGCAGACUUGACGAAGCUG", "summary_of_the_method": "as §1"}, "[5]": {"test_system": "biotinyl-Leu-oxazolone", "assay": "self-aminoacylation, catalytic enhancement (BLO) (fold over background); higher = more active; k-Seq, kA / k0A0; sequences stand for … in GGGAAUGGAUCCACAUCUACGAAUUC…UUCACUGCAGACUUGACGAAGCUG", "summary_of_the_method": "as §1"}, "[6]": {"test_system": "biotinyl-Trp-oxazolone", "assay": "self-aminoacylation, catalytic enhancement (BWO) (fold over background); higher = more active; k-Seq, kA / k0A0; sequences stand for … in GGGAAUGGAUCCACAUCUACGAAUUC…UUCACUGCAGACUUGACGAAGCUG", "summary_of_the_method": "as §1"}}, "note": "Fewer inactive variants are shown than the library holds."}
{"sequence": "AUUCACCUAGGUCAGCGGGCG [Fam2.2 aminoacylation ribozyme variant]", "values": [{"measurement": "self-aminoacylation", "setting": "[1]", "value": 5.42}, {"measurement": "self-aminoacylation", "setting": "[2]", "value": 27}, {"measurement": "self-aminoacylation", "setting": "[3]", "value": 5.27}, {"measurement": "self-aminoacylation", "setting": "[4]", "value": 5.22}, {"measurement": "self-aminoacylation", "setting": "[5]", "value": 7.99}, {"measurement": "self-aminoacylation", "setting": "[6]", "value": 4.44}]}
{"sequence": "AUUCACCUAGGUCAGCGGGGG [Fam2.2 aminoacylation ribozyme variant]", "values": [{"measurement": "self-aminoacylation", "setting": "[1]", "value": 3.43}, {"measurement": "self-aminoacylation", "setting": "[2]", "value": 27.6}, {"measurement": "self-aminoacylation", "setting": "[3]", "value": 5.1}, {"measurement": "self-aminoacylation", "setting": "[4]", "value": 4.35}, {"measurement": "self-aminoacylation", "setting": "[5]", "value": 5.24}, {"measurement": "self-aminoacylation", "setting": "[6]", "value": 5.24}]}
{"sequence": "AUUCACCUAGGUCAGGGGGUG [Fam2.2 aminoacylation ribozyme variant]", "values": [{"measurement": "self-aminoacylation", "setting": "[1]", "value": 1.8}, {"measurement": "self-aminoacylation", "setting": "[2]", "value": 13.9}, {"measurement": "self-aminoacylation", "setting": "[3]", "value": 2.67}, {"measurement": "self-aminoacylation", "setting": "[4]", "value": 1.78}, {"measurement": "self-aminoacylation", "setting": "[5]", "value": 3.4}, {"measurement": "self-aminoacylation", "setting": "[6]", "value": 2.55}]}
{"sequence": "AUUCACCUAGGUCAUACGGUG [Fam2.2 aminoacylation ribozyme variant]", "values": [{"measurement": "self-aminoacylation", "setting": "[1]", "value": 4.41}, {"measurement": "self-aminoacylation", "setting": "[2]", "value": 55.7}, {"measurement": "self-aminoacylation", "setting": "[3]", "value": 7.59}, {"measurement": "self-aminoacylation", "setting": "[4]", "value": 4.38}, {"measurement": "self-aminoacylation", "setting": "[5]", "value": 10.3}, {"measurement": "self-aminoacylation", "setting": "[6]", "value": 6.75}]}
{"sequence": "AUUCACCUAGGUCAUAGAGUG [Fam2.2 aminoacylation ribozyme variant]", "values": [{"measurement": "self-aminoacylation", "setting": "[1]", "value": 2.08}, {"measurement": "self-aminoacylation", "setting": "[2]", "value": 10.1}, {"measurement": "self-aminoacylation", "setting": "[3]", "value": 2.98}, {"measurement": "self-aminoacylation", "setting": "[4]", "value": 2.23}, {"measurement": "self-aminoacylation", "setting": "[5]", "value": 3.92}, {"measurement": "self-aminoacylation", "setting": "[6]", "value": 2.12}]}
{"sequence": "AUUCACCUAGGUCAUAGCGUG [Fam2.2 aminoacylation ribozyme variant]", "values": [{"measurement": "self-aminoacylation", "setting": "[1]", "value": 2.15}, {"measurement": "self-aminoacylation", "setting": "[2]", "value": 17.1}, {"measurement": "self-aminoacylation", "setting": "[3]", "value": 3.36}, {"measurement": "self-aminoacylation", "setting": "[4]", "value": 2.46}, {"measurement": "self-aminoacylation", "setting": "[5]", "value": 4.63}, {"measurement": "self-aminoacylation", "setting": "[6]", "value": 3.55}]}
{"sequence": "AUUCACCUAGGUCAUAGGGUG [Fam2.2 aminoacylation ribozyme variant]", "values": [{"measurement": "self-aminoacylation", "setting": "[1]", "value": 1.35}, {"measurement": "self-aminoacylation", "setting": "[2]", "value": 2.06}, {"measurement": "self-aminoacylation", "setting": "[3]", "value": 1.75}, {"measurement": "self-aminoacylation", "setting": "[4]", "value": 1.39}, {"measurement": "self-aminoacylation", "setting": "[5]", "value": 2.06}, {"measurement": "self-aminoacylation", "setting": "[6]", "value": 1.49}]}
{"sequence": "AUUCACCUAGGUCAUAGGUUG [Fam2.2 aminoacylation ribozyme variant]", "values": [{"measurement": "self-aminoacylation", "setting": "[1]", "value": 0.77}, {"measurement": "self-aminoacylation", "setting": "[2]", "value": 0.595}, {"measurement": "self-aminoacylation", "setting": "[3]", "value": 0.846}, {"measurement": "self-aminoacylation", "setting": "[4]", "value": 0.63}, {"measurement": "self-aminoacylation", "setting": "[5]", "value": 0.9}, {"measurement": "self-aminoacylation", "setting": "[6]", "value": 0.441}]}
{"sequence": "AUUCACCUAGGUCAUCAAGUG [Fam2.2 aminoacylation ribozyme variant]", "values": [{"measurement": "self-aminoacylation", "setting": "[1]", "value": 0.711}, {"measurement": "self-aminoacylation", "setting": "[2]", "value": 1.21}, {"measurement": "self-aminoacylation", "setting": "[3]", "value": 0.662}, {"measurement": "self-aminoacylation", "setting": "[4]", "value": 0.747}, {"measurement": "self-aminoacylation", "setting": "[5]", "value": 0.756}, {"measurement": "self-aminoacylation", "setting": "[6]", "value": 0.347}]}
{"sequence": "AUUCACCUAGGUCAUCAGGAG [Fam2.2 aminoacylation ribozyme variant]", "values": [{"measurement": "self-aminoacylation", "setting": "[1]", "value": 1.09}, {"measurement": "self-aminoacylation", "setting": "[2]", "value": 0.931}, {"measurement": "self-aminoacylation", "setting": "[3]", "value": 0.951}, {"measurement": "self-aminoacylation", "setting": "[4]", "value": 0.957}, {"measurement": "self-aminoacylation", "setting": "[5]", "value": 1.01}, {"measurement": "self-aminoacylation", "setting": "[6]", "value": 0.779}]}
{"sequence": "AUUCACCUAGGUCAUCAGGGG [Fam2.2 aminoacylation ribozyme variant]", "values": [{"measurement": "self-aminoacylation", "setting": "[1]", "value": 1.22}, {"measurement": "self-aminoacylation", "setting": "[2]", "value": 0.986}, {"measurement": "self-aminoacylation", "setting": "[3]", "value": 0.955}, {"measurement": "self-aminoacylation", "setting": "[4]", "value": 1.22}, {"measurement": "self-aminoacylation", "setting": "[5]", "value": 1.32}, {"measurement": "self-aminoacylation", "setting": "[6]", "value": 0.985}]}
{"sequence": "AUUCACCUAGGUCAUCAGGUG [Fam2.2 aminoacylation ribozyme variant]", "values": [{"measurement": "self-aminoacylation", "setting": "[1]", "value": 1.3}, {"measurement": "self-aminoacylation", "setting": "[2]", "value": 1.31}, {"measurement": "self-aminoacylation", "setting": "[3]", "value": 1.39}, {"measurement": "self-aminoacylation", "setting": "[4]", "value": 1.19}, {"measurement": "self-aminoacylation", "setting": "[5]", "value": 1.56}, {"measurement": "self-aminoacylation", "setting": "[6]", "value": 1.39}]}
{"sequence": "AUUCACCUAGGUCAUCCAGUG [Fam2.2 aminoacylation ribozyme variant]", "values": [{"measurement": "self-aminoacylation", "setting": "[1]", "value": 4.21}, {"measurement": "self-aminoacylation", "setting": "[2]", "value": 52}, {"measurement": "self-aminoacylation", "setting": "[3]", "value": 7.78}, {"measurement": "self-aminoacylation", "setting": "[4]", "value": 5.19}, {"measurement": "self-aminoacylation", "setting": "[5]", "value": 9.68}, {"measurement": "self-aminoacylation", "setting": "[6]", "value": 6.96}]}
